# Test system: Escherichia coli TOP10
# Assay: shrunken log2 fold change of peptide-encoding DNA abundance (4.5 h post-induction vs induction); higher = less antimicrobial activity (less host growth inhibition)
# Settings: time post-induction: 4.5 h; library: site-saturation at positions 5, 18, 19, 20
# 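Note: peptides expressed intracellularly from a pBAD plasmid library in pooled LB shake-flask culture, induced with 0.3% L-arabinose, DNA abundance read by NGS, three biological replicates, DESeq2 with apeglm shrinkage.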
row,Sequence,shrunken log2 fold change
1,RRIRLRPPRLPRPRPRPCPPPRP,0.157
2,RRIRFRPPRLPRPRPRPIDNPRP,2.36
3,RRIRVRPPRLPRPRPRPVTSPRP,-0.558
4,RRIRLRPPRLPRPRPRPIHVPRP,-0.0124
5,RRIRHRPPRLPRPRPRPVGRPRP,0.226
6,RRIRMRPPRLPRPRPRPQIDPRP,0.141
7,RRIRPRPPRLPRPRPRPPIIPRP,-0.231
8,RRIRSRPPRLPRPRPRPYRPPRP,-0.365
9,RRIRYRPPRLPRPRPRPYFYPRP,-0.49
10,RRIRVRPPRLPRPRPRPENWPRP,0.131
11,RRIRIRPPRLPRPRPRPITSPRP,-1.46
12,RRIRGRPPRLPRPRPRPTSHPRP,0.64
13,RRIRERPPRLPRPRPRPIAPPRP,0.235
14,RRIRYRPPRLPRPRPRPERLPRP,-0.00207
15,RRIRYRPPRLPRPRPRPTEMPRP,-0.306
16,RRIRGRPPRLPRPRPRPSLMPRP,0.5
17,RRIRIRPPRLPRPRPRPQSSPRP,0.00983
18,RRIRYRPPRLPRPRPRPHSWPRP,-0.69
19,RRIRKRPPRLPRPRPRPKDKPRP,0.388
20,RRIRVRPPRLPRPRPRPDKGPRP,-0.591
21,RRIRVRPPRLPRPRPRPNQAPRP,0.0159
22,RRIRCRPPRLPRPRPRPVDQPRP,-0.304

row,Sequence,shrunken log2 fold change
1,RRIRSRPPRLPRPRPRPPAGPRP,0.704
2,RRIRCRPPRLPRPRPRPDPHPRP,-0.015
3,RRIRFRPPRLPRPRPRPPLPPRP,0.661
4,RRIRNRPPRLPRPRPRPYIIPRP,-0.156
5,RRIRLRPPRLPRPRPRPLEWPRP,0.0509
6,RRIRSRPPRLPRPRPRPWKVPRP,-0.173
7,RRIRDRPPRLPRPRPRPWFQPRP,-0.0572
8,RRIRTRPPRLPRPRPRPPKKPRP,0.0946
9,RRIRARPPRLPRPRPRPFTCPRP,0.0835
10,RRIRPRPPRLPRPRPRPTQKPRP,0.0334
11,RRIRWRPPRLPRPRPRPEWCPRP,0.386
12,RRIRERPPRLPRPRPRPWCQPRP,-0.0135
13,RRIRSRPPRLPRPRPRPMTKPRP,0.0651
14,RRIRVRPPRLPRPRPRPIPWPRP,-0.232
15,RRIRPRPPRLPRPRPRPVADPRP,0.295
16,RRIRERPPRLPRPRPRPHWNPRP,-0.843
17,RRIRMRPPRLPRPRPRPIHNPRP,-0.58
18,RRIRFRPPRLPRPRPRPWIMPRP,-0.206
19,RRIRCRPPRLPRPRPRPWKPPRP,0.0199
20,RRIRHRPPRLPRPRPRPVEEPRP,0.00298
21,RRIRIRPPRLPRPRPRPFPQPRP,-0.549
22,RRIRQRPPRLPRPRPRPYNEPRP,-0.184

row,Sequence,shrunken log2 fold change
1,RRIRMRPPRLPRPRPRPERTPRP,0.00114
2,RRIRLRPPRLPRPRPRPLTLPRP,0.134
3,RRIRCRPPRLPRPRPRPDFHPRP,-0.685
4,RRIRCRPPRLPRPRPRPWTLPRP,-0.282
5,RRIRMRPPRLPRPRPRPVPDPRP,0.239
6,RRIRARPPRLPRPRPRPSKKPRP,0.23
7,RRIRERPPRLPRPRPRPDRFPRP,-0.01
8,RRIRPRPPRLPRPRPRPMQNPRP,0.201
9,RRIRGRPPRLPRPRPRPDPDPRP,0.776
10,RRIRNRPPRLPRPRPRPRDNPRP,0.104
11,RRIRHRPPRLPRPRPRPKHRPRP,0.376
12,RRIRTRPPRLPRPRPRPNKSPRP,-0.315
13,RRIRFRPPRLPRPRPRPFTPPRP,-0.358
14,RRIRMRPPRLPRPRPRPCVRPRP,0.0764
15,RRIRRRPPRLPRPRPRPREDPRP,0.811
16,RRIRLRPPRLPRPRPRPQAMPRP,0.00366
17,RRIRFRPPRLPRPRPRPCMWPRP,-0.258
18,RRIRVRPPRLPRPRPRPSECPRP,0.0274
19,RRIRDRPPRLPRPRPRPCMRPRP,0.311
20,RRIRERPPRLPRPRPRPLSDPRP,-0.0828
21,RRIRTRPPRLPRPRPRPMFGPRP,0.115
22,RRIRTRPPRLPRPRPRPCMTPRP,-0.111

row,Sequence,shrunken log2 fold change
1,RRIRKRPPRLPRPRPRPLKCPRP,-0.072
2,RRIRLRPPRLPRPRPRPDFSPRP,0.177
3,RRIRFRPPRLPRPRPRPFYSPRP,-0.0734
4,RRIRDRPPRLPRPRPRPFSPPRP,-0.158
5,RRIRERPPRLPRPRPRPRMCPRP,-0.0502
6,RRIRRRPPRLPRPRPRPQHTPRP,0.191
7,RRIRFRPPRLPRPRPRPYSEPRP,-0.297
8,RRIRARPPRLPRPRPRPQTWPRP,0.279
9,RRIRSRPPRLPRPRPRPMANPRP,-0.397
10,RRIRGRPPRLPRPRPRPAWDPRP,0.76
11,RRIRSRPPRLPRPRPRPEWKPRP,0.14
12,RRIRCRPPRLPRPRPRPQGPPRP,0.353
13,RRIRGRPPRLPRPRPRPRLPPRP,0.851
14,RRIRWRPPRLPRPRPRPAKNPRP,0.263
15,RRIRDRPPRLPRPRPRPPYYPRP,-0.474
16,RRIRQRPPRLPRPRPRPTIYPRP,-0.552
17,RRIRCRPPRLPRPRPRPWQAPRP,0.204
18,RRIRMRPPRLPRPRPRPMWRPRP,0.00628
19,RRIRWRPPRLPRPRPRPWEPPRP,-0.0178
20,RRIRIRPPRLPRPRPRPGHNPRP,-0.0704
21,RRIRERPPRLPRPRPRPSHPPRP,-0.481
22,RRIRERPPRLPRPRPRPFMRPRP,0.154

row,Sequence,shrunken log2 fold change
1,RRIRWRPPRLPRPRPRPTKEPRP,0.177
2,RRIRFRPPRLPRPRPRPYFQPRP,-1.44
3,RRIRNRPPRLPRPRPRPDCDPRP,-0.132
4,RRIRDRPPRLPRPRPRPCSFPRP,-0.0466
5,RRIRWRPPRLPRPRPRPHRQPRP,-0.165
6,RRIRDRPPRLPRPRPRPSSGPRP,-0.0626
7,RRIRHRPPRLPRPRPRPIHEPRP,-0.153
8,RRIRIRPPRLPRPRPRPSHWPRP,-0.0355
9,RRIRVRPPRLPRPRPRPCAHPRP,-0.0704
10,RRIRHRPPRLPRPRPRPYTWPRP,-1.02
11,RRIRKRPPRLPRPRPRPPKFPRP,0.514
12,RRIRCRPPRLPRPRPRPLDFPRP,-0.175
13,RRIRWRPPRLPRPRPRPLIVPRP,0.0513
14,RRIRVRPPRLPRPRPRPFPKPRP,-0.0266
15,RRIRIRPPRLPRPRPRPWIIPRP,-0.207
16,RRIRYRPPRLPRPRPRPCRYPRP,-0.212
17,RRIRSRPPRLPRPRPRPGKPPRP,0.0657
18,RRIRGRPPRLPRPRPRPTIPPRP,-0.0601
19,RRIRLRPPRLPRPRPRPGYGPRP,0.0339
20,RRIRERPPRLPRPRPRPYEDPRP,-0.0116
21,RRIRGRPPRLPRPRPRPMKMPRP,0.00988
